Positions count from the first letter of the chain named. Names and notes keep the numbering of the source.
B1: pY0192 VL W96A (Fab, V domains shown)
VH: EVQLVESGGGLVQPGGSLRLSCAASGYTFTNYGINWVRQAPGKGLEWVGWINTYTGEPTYAADFKRRFTFSLDTSKSTAYLQMNSLRAEDTAVYYCAKYPHYYGSSHWYFDVWGQGTL
VL: DIQLTQSPSSLSASVGDRVTITCRANEQLSNYLNWYQQKPGKAPKVLIYFTSSLHSGVPSRFSGSGSGTDFTLTISSLQPEDFATYYCQQYSTVPATFGQGTKVEIKR
B2: pY0192 VH N31A (Fab, V domains shown)
VH: B1 VH with N31A
VL: B1 VL with A96W
B3: pY0192 VH Y32A (Fab, V domains shown)
VH: B1 VH with Y32A
VL: B1 VL with A96W
B4: pY0192 VH W108A (Fab, V domains shown)
VH: B1 VH with W108A
VL: B1 VL with A96W
B5: pY0192 VH W50A (Fab, V domains shown)
VH: B1 VH with W50A
VL: B1 VL with A96W
B6: pY0192 VH S106A (Fab, V domains shown)
VH: B1 VH with S106A
VL: B1 VL with A96W
B7: pY0192 VH Y99A (Fab, V domains shown)
VH: B1 VH with Y99A
VL: B1 VL with A96W
B8: pY0192 VH N52A (Fab, V domains shown)
VH: B1 VH with N52A
VL: B1 VL with A96W
B9: pY0192 VH A62S (Fab, V domains shown)
VH: B1 VH with A62S
VL: B1 VL with A96W
notes: Ala-scan variant of pY0192; Fab on phage
B10: pY0192 VH A61S (Fab, V domains shown)
VH: B1 VH with A61S
VL: B1 VL with A96W
notes: as for B9
B11: pY0192 VH K65A (Fab, V domains shown)
VH: B1 VH with K65A
VL: B1 VL with A96W
notes: as for B9
B12: pY0192 VH N35A (Fab, V domains shown)
VH: B1 VH with N35A
VL: B1 VL with A96W
notes: as for B9
B13: pY0192 VH I34A (Fab, V domains shown)
VH: B1 VH with I34A
VL: B1 VL with A96W
notes: as for B9
B14: pY0192 VH H107A (Fab, V domains shown)
VH: B1 VH with H107A
VL: B1 VL with A96W
notes: as for B9
B15: pY0192 VL E27A (Fab, V domains shown)
VH: B1 VH
VL: B1 VL with E27A, A96W
notes: as for B9
B16: pY0192 VH F110A (Fab, V domains shown)
VH: B1 VH with F110A
VL: B1 VL with A96W
notes: as for B9
B17: pY0192 VL F50A (Fab, V domains shown)
VH: B1 VH
VL: B1 VL with F50A, A96W
notes: as for B9
B18: pY0192 VH F29A (Fab, V domains shown)
VH: B1 VH with F29A
VL: B1 VL with A96W
notes: as for B9
B19: pY0192 VH Y54A (Fab, V domains shown)
VH: B1 VH with Y54A
VL: B1 VL with A96W
notes: as for B9
B20: pY0192 VH G56A (Fab, V domains shown)
VH: B1 VH with G56A
VL: B1 VL with A96W
notes: as for B9
B21: pY0192 VH I51A (Fab, V domains shown)
VH: B1 VH with I51A
VL: B1 VL with A96W
notes: as for B9
B22: pY0192 VH T59A (Fab, V domains shown)
VH: B1 VH with T59A
VL: B1 VL with A96W
notes: as for B9
B23: pY0192 VH T55A (Fab, V domains shown)
VH: B1 VH with T55A
VL: B1 VL with A96W
notes: as for B9
B24: pY0192 VH T30A (Fab, V domains shown)
VH: B1 VH with T30A
VL: B1 VL with A96W
notes: as for B9
B25: pY0192 VH P100A (Fab, V domains shown)
VH: B1 VH with P100A
VL: B1 VL with A96W
notes: Ala-scan variant of pY0192; Fab on phage; also called P1OOA
B26: pY0192 VH T53A (Fab, V domains shown)
VH: B1 VH with T53A
VL: B1 VL with A96W
notes: as for B9
B27: pY0192 VH Y109A (Fab, V domains shown)
VH: B1 VH with Y109A
VL: B1 VL with A96W
notes: as for B9
B28: pY0192 VH E57A (Fab, V domains shown)
VH: B1 VH with E57A
VL: B1 VL with A96W
notes: as for B9
B29: pY0192 VH G33A (Fab, V domains shown)
VH: B1 VH with G33A
VL: B1 VL with A96W
notes: as for B9
B30: pY0192 VH Y27A (Fab, V domains shown)
VH: B1 VH with Y27A
VL: B1 VL with A96W
notes: as for B9
B31: pY0192 VH T28A (Fab, V domains shown)
VH: B1 VH with T28A
VL: B1 VL with A96W
notes: as for B9
B32: pY0192 VH F64A (Fab, V domains shown)
VH: B1 VH with F64A
VL: B1 VL with A96W
notes: as for B9
B33: pY0192 VH G26A (Fab, V domains shown)
VH: B1 VH with G26A
VL: B1 VL with A96W
notes: as for B9
B34: pY0192 VH D63A (Fab, V domains shown)
VH: B1 VH with D63A
VL: B1 VL with A96W
notes: as for B9
B35: pY0192 VL A25S (Fab, V domains shown)
VH: B1 VH
VL: B1 VL with A25S, A96W
notes: as for B9
B36: pY0192 VH D111A (Fab, V domains shown)
VH: B1 VH with D111A
VL: B1 VL with A96W
notes: as for B9
B37: pY0192 VH Y103A (Fab, V domains shown)
VH: B1 VH with Y103A
VL: B1 VL with A96W
notes: as for B9
B38: pY0192 VH Y102A (Fab, V domains shown)
VH: B1 VH with Y102A
VL: B1 VL with A96W
notes: as for B9
B39: pY0192 VH G104A (Fab, V domains shown)
VH: B1 VH with G104A
VL: B1 VL with A96W
notes: as for B9
B40: pY0192 VH R66A (Fab, V domains shown)
VH: B1 VH with R66A
VL: B1 VL with A96W
notes: as for B9
B41: pY0192 VH P58A (Fab, V domains shown)
VH: B1 VH with P58A
VL: B1 VL with A96W
notes: as for B9
B42: pY0192 VH S105A (Fab, V domains shown)
VH: B1 VH with S105A
VL: B1 VL with A96W
notes: as for B9
B43: pY0192 VH H101A (Fab, V domains shown)
VH: B1 VH with H101A
VL: B1 VL with A96W
notes: as for B9
B44: pY0192 VH Y60A (Fab, V domains shown)
VH: B1 VH with Y60A
VL: B1 VL with A96W
notes: as for B9

target: T1, VEGF (human, UniProt P15692-4 27-191, limits assumed); assay: competitive phage-ELISA, relative to pY0192
T1 construct: Biotinylated in the KDR-IgG ELISA, amine-coupled to the chip in BIAcore; also called biotinylated VEGF; vascular endothelial growth factor
Description: In such an assay, phages were first serially diluted to determine a fractional saturation titer which was then held constant and used to incubate with varying concentrations of VEGF (starting at 200 nM to 0 nM) in solution. The mixture was then transferred onto plate precoated with VEGF (2 μg/mL) and blocked with 5% instant milk, and allowed to equilibrate for 1 hour at room temperature. Thereafter, the phage solution was removed and the remaining bound phages were detected with a solution of rabbit anti-phage antibody mixed with goat anti-rabbit conjugate of horse radish peroxidase. After an hour incubation at room temperature, the plate was developed with a chromogenic substrate, o-phenylenediamine (Sigma). The reaction was stopped with addition of ½ volume of 2.5 M H₂SO₄. Optical density at 492 nm was measured on a spectrophotometric plate reader.
IC50's were determined in a competitive phage-ELISA assay.

T1 sequence (P15692 other isoform, or with tags, fused parts or gaps limits assumed): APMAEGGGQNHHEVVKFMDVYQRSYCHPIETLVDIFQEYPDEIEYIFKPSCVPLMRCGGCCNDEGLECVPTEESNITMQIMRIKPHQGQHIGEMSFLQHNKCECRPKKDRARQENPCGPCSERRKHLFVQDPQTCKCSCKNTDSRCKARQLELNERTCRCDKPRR

Row | Binder | IC50 (mut)/IC50 (wt)
1 | B1 | > 150
2 | B2 | > 150
3 | B3 | > 150
4 | B4 | > 150
5 | B5 | > 150
6 | B6 | > 150
7 | B7 | > 150
8 | B8 | > 150
9 | B9 | 1 ratio
10 | B10 | 1 ratio
11 | B11 | 1 ratio
12 | B12 | 66 ratio
13 | B13 | 6 ratio
14 | B14 | 2 ratio
15 | B15 | 1 ratio
16 | B16 | 25 ratio
17 | B17 | 1 ratio
18 | B18 | 16 ratio
19 | B19 | 9 ratio
20 | B20 | 1 ratio
21 | B21 | 4 ratio
22 | B22 | 3 ratio

Row | Binder | IC50 (mut)/IC50 (wt)
23 | B23 | 4 ratio
24 | B24 | 1 ratio
25 | B25 | 38 ratio
26 | B26 | 9 ratio
27 | B27 | 19 ratio
28 | B28 | 2 ratio
29 | B29 | 6 ratio
30 | B30 | 34 ratio
31 | B31 | 1 ratio
32 | B32 | 1 ratio
33 | B33 | 2 ratio
34 | B34 | 1 ratio
35 | B35 | 1 ratio
36 | B36 | 2 ratio
37 | B37 | 5 ratio
38 | B38 | 4 ratio
39 | B39 | 2 ratio
40 | B40 | 1 ratio
41 | B41 | 1 ratio
42 | B42 | 1 ratio
43 | B43 | 4 ratio
44 | B44 | 2 ratio

Reference: patent publication US20050112126A1 (Genentech, published 2005)
